{
  "source": "the DeepSol protein solubility set",
  "data": [
    {"test": "soluble on expression in E. coli; label from the status in PepcDB or PDB records", "values": [
      {"sequence": "RTDTIMVLHIPSSGKATLMSIPRDSYVEIPGYGMDKINASFTYGGAPLLTQTVENATGLRINHYAEIGMGGLANVVDAVGGIEVCPAEPIDDPLAGLNIAAGCQKVDGPTALGYVRTRHTALGDLDRVQRQREFFAALVNKVTS", "soluble on expression in E. coli": "not soluble"},
      {"sequence": "RVASNLDNKARVTELFKSAYSILTEVEKMAVEGKMPEEEAKALATRLLRNNIYKDNEYVYVADENMMFIAAPLDPQLHGTSFHDFKDGSGNSVGQ", "soluble on expression in E. coli": "not soluble"},
      {"sequence": "RVSLLKRKYKRVTTIAERTRRAQSETDRRNYTAASKARTQAQRSSKPQRTRASSRSRRDNSVTVEELMRRRQEQQQTGAKSFAPRPTRTAAQREAAERDLTRRLVNPDPEIHRTRTFDDDLYS", "soluble on expression in E. coli": "not soluble"},
      {"sequence": "RVSNEFPPREYIATVYNRICNYLQIGEGEGFERSFDFDIDAFCRNFRMFPTQVLAAIRILDVAGIWEYREEKTRSRLTIQVQRDELYRMRSEQASDSVLTALMRTYDGLFADYVSIVESELAEKTGLSVDQVYQQLLLLNKAGIVNYIPQKNLPRIYFLTRREDAELLQIPRAAYEDRRDRLKARIDQSLRYIEEENTCRSRMLLAYFGEEQSHNCKLCDVCLRRKDGELHHHEVDDLLHFLEQRLTEETPYVLIADICRELHHHPDVVLKAIRFVMKESWQYSTDGDTVFLTHKLPGGLNL", "soluble on expression in E. coli": "not soluble"},
      {"sequence": "RYSHSLGVYELLRRILNTPAFAPIDENKKQTVLVAGLLHDIGHAPHSHAFEIYFAKAPNFKKELFIHEEVTTLFVNSEPIKSILKANQIDPKLVAALIDENKELKPSNYWMRQLISSDLDADRMDYLLRD", "soluble on expression in E. coli": "not soluble"},
      {"sequence": "SAASGESGTSGGGGSTEEAFMTFYSEVKQIEKRDSVLTSKNQIERLTRPGSSYFNLNPFEVLQIDPEVTDEEIKKRFRQLSILVHPDKNQDDADRAQKAFEAVDKAYKLLLDQEQKKRALDVIQAGKEYVEHTVKERKKQLKKEGKPTIVEEDDPELFKQAVYKQTMKLFAELEIKRKEREAKEMHERKRQREEEIEAQEKAKREREWQKNFEESRDGRVDSWRNFQANTKGKKEKKNRTFLRPPKVKMEQRE", "soluble on expression in E. coli": "soluble"},
      {"sequence": "SAASKLQAFWNHPAGPKTIHFWAPTFKWGISIANVADFAKPPEMISYPQQVVVACSGVIWARWGMVITPINWNLSSVNAAMAVTGVCQLSRKIRHDYFSDEKSATASLEG", "soluble on expression in E. coli": "soluble"},
      {"sequence": "SAEKFDHLEEHLEKFVENIRQLGIIVSDFQPSSQAGLNQKLNFIVTGLQDIDKCRQQLHDITVPLEVFEYIDQGRNPQLYTKECLERALAKNEQVKGKIDTMKKFKSLLIQELSKVFPEDMAKYRSIRGEDHPPS", "soluble on expression in E. coli": "soluble"},
      {"sequence": "SAQSQRAPDRVLCHSGQQQGLPRAAGGSVPHPRCH", "soluble on expression in E. coli": "soluble"},
      {"sequence": "SASFVGTPLPESENISLYQSRVTVAELEMLASRFVGRTRVKVAFQAYWSQQREELLPNQQAPSSLIRHTERVLAGVFGASSAKLVLTSALQGRNMQLEEVATIVDEAS", "soluble on expression in E. coli": "not soluble"},
      {"sequence": "SASMAGPDHLFNLRNHFYLGAYQAAINNSEIPNLSQEDIVERDCLVHRAYIALGSYQLVISEIDEAAATPLQAVKLLAMYLSSPENKESTISSLREWLADPTVGNNAIIRLIAGTIFMHEEDYNEALKHTHSGGTMDLHALNVQIFIKMHRSDFAEKQLRVMQQIDEDHTLTQLASAWLNLAVGGSKIQEAYLIFQDFSEKYPMTSLILNGKAVCCMHMGNFEEAETLLLEALNKDAKDPETLANLVVCSLHVGKSSSRYLNQLKLSHPEHVLVKRAASAEDNFERALQSFA", "soluble on expression in E. coli": "soluble"},
      {"sequence": "SATQIPSTISILATSDIHGNVLNYDYATGKAPTNTQGLAKVSSYVNSVRASKPNVMLIDDGDTIQGTPLSYYYDKIDTTSEYPLMKIMGAMKYDTWTLGNHEFNYGLPTLNRVISDARKENINVLSANTYNSDNTNFVNPYYIKTFNINGKTVNVGILGLTTKCIPDWEDPSHYAGLHFNDLVDEAKLWVPRMKAAGANVVIVAAHSGEEGAADTIPENQIKAIATNVSGIDAIVAGHAHVTVNDTSLKNPNGKTVPVVEPNKWGTFVSQIDITLDNSGNASTINTQNVKMTDSIPEDPNIVNIIQPYQNKTLDYIST", "soluble on expression in E. coli": "not soluble"},
      {"sequence": "SAVFSDPQIAMVGETYKEITTRLGTCGCFATGEVSFENQGRSRVMLRNKGILHVYGEQGTGRFLGAEMMGPNAEHLAHLLAWAHQNKMTVSEMLDMPFYHPVIEEGVRTALRDLNAKLHLGPEMIKHCMDCGPGC", "soluble on expression in E. coli": "not soluble"},
      {"sequence": "SCQDLRVLNAIRDYHIGIPLTYTQYKQLTIQVLLDRLVLRRLYPLAIQICEYLRLPEVQGVSRILAHWACYKVQQKDVSDEDVARAINQKLGDTPGVSYSDIAARAYGCGRTELAIKLLEYEPRSGEQVPLLLKMKRSKLALSKAIESGDTDLVFTVLLHLKNELNRGDFFMTLRNQPMALSLYRQFCKHQELDTLKDLYNQDDNHQELGSFHIRASYAAEERIEGRVAALQTAADAFYKAKNEFAAKATEDQMRLLRIQRRLEDELGGRFLDLSLHDTVTTLILGGHNKRAEQLARDFRIPDKRLWWLKLAALADLEDWEELEKFSKSKKSPIGYLPFVEICMKQHNKHEAKKYASRVGPEQKVKALLLVGDVAQAAEVAIEHRNETELSLVLSHCTGATDGAIADKIQRARAQAQKK", "soluble on expression in E. coli": "soluble"},
      {"sequence": "SDKLNKITVPASQKLRQLQKMVHDIKNNEGGIMNKIKKLKVKAPPSVPRRDYASESPADEEQQWSDDFDSDYENPDEHSDSEMYVMPAEENADDSYEPPPVEQETRPVHPALPFARGEYIDNRSSQRHSPPFSKTLPSKPSWPSEKARLTSTLPALTALQKPQVPPKPKGLLEDEADYVVPVEDNDENYIHPTESSSPPPEKAPMVNRSTKPNSSTPASPPGTASGRNSGAWETKSPPPAAPSPLPRAGKKPTTPLKTTPVASQQNASSVCEEKPIPAERHRGSSHRQEAVQSPVFPPAQKQIHQKPIPLPRFTEGGNPTVDGPLPSFSSNSTISEQEAGVLCKPWYAGACDRKSAEEALHRSNKDGSFLIRKSSGHDSKQPYTLVVFFNKRVYNIPVRFIEATKQYALGRKKNGEEYFGSVAEIIRNHQHSPLVLIDSQNNTKDSTRLKYAVKVS", "soluble on expression in E. coli": "soluble"},
      {"sequence": "SDLGAITKYSALHAKPNGLILQYGTAGFRTKAEHLDHVMFRMGLLAVLRSKQTKSTIGVMVTASHNPEEDNGVKLVDPLGEMLAPSWEEHATCLANAEEQDMQRVLIDISEKEAVNLQQDAFVVIGRDTRPSSEKLSQSVIDGVTVLGGQFHDYGLLTTPQLHYMVYCRNTGGRYGKATIEGYYQKLSKAFVELTKQASCSGDEYRSLKVDCANGIGALKLREMEHYFSQGLSVQLFNDGSKGKLNHLCGADFVKSHQKPPQGMEIKSNERCCSFDGDADRIVYYYHDADGHFHLIDGDKIATLISSFLKELLVEIGESLNIGVVQTAYANGSSTRYLEEVMKVPVYCTKTGVKHLHHKAQEFDIGVYFEANGHGTALFSTAVEMKIKQSAEQLEDKKRKAAKMLENIIDLFNQAAGDAISDMLVIEAILALKGLTVQQWDALYTDLPNRQLKVQVADRRVISTTNAERQAVTPPGLQEAINDLVKKYKLSRAFVRPSGTEDVVRVYAEADSQESADHLAHEVSLAVFQLAGGIGERPQPGF", "soluble on expression in E. coli": "not soluble"},
      {"sequence": "SDLVITQELARAESQQDAASLKKAYELIKSANLGKSEFDPSESFSPDLFVLCAEQALKMRQPEVSEDCIQMYFKVKAPITQFLGRAHLCRAQMCAPKSAENLEEFENCVTEYMKAINFAKGEPRYYFLVYNASVLYWQMVRPFLKPGYRHHLIPSLSQIINVLSQTEEEDKEWRAELMLELLECYLQAGRKEEAARFCSTAAPFIKSHVPQKYRQIFSVMVNQRIRNRDVRSNFLKSHCSENCVEIT", "soluble on expression in E. coli": "soluble"},
      {"sequence": "SDLWVQKMKTYFNRIDFDKDGAITRMDFESMAERFAKESEMKAEHAKVLMDSLTGVWDNFLTAVAGGKGIDETTFINSMKEMVKNPEAKSVVEGPLPLFFRAVDTNEDNNISRDEYGIFFGMLGLDKTMAPASFDAIDTNNDGLLSLEEFVIAGSDFFMNDGDSTNKVFWGPLV", "soluble on expression in E. coli": "soluble"},
      {"sequence": "SDPVDYQAEDATIVQGAVESNHAGYTGTGFVNYDNVAGSSVEWTVTVPSAGTYDVVVRYANGTTTSRPLDFSVNGSISASGVAFGSTGTWPAWTTKTVRVTLAAGVNKIKAVATTANGGPNVDKITL", "soluble on expression in E. coli": "soluble"},
      {"sequence": "SEKMSRPLPLNPTFIPPPYGVLRSLLENPLKLPLHHEDAFSKDKDKEKKLDDESNSPTVPQSAFLGPTLWDKTLPYDGDTFQLEYMDLEEFLSENGIPPSPSQHDHSPHPPGLQPASSAAPSVMDLSSRASAPLHPGIPSPNCMQSPIRPGQLLPANRNTPSPIDPDTIQVPVGYEPDPADLALSSIPGQEMFDPRKRKFSEEELKPQPMIKKARKVFIPDDLKDDKYWARRRKNNMAAKRSRDARRLKENQIAIRASFLEKENSALRQEVADLRKELGKCKNILAKYEARHGPL", "soluble on expression in E. coli": "soluble"},
      {"sequence": "SEKYNSLSDFLKEFYIPTYVLSAETEEEEEEESRPTPASPVLVFINSKSGGQLGGELILTYRSLLNHNQVFDLDQETPDKVLRRIYLNLERLKDDDFARQIREKLKIIVAGGDGTAGWLLGVVCDLKLSHPPPIATVPLGTGNNLPFAFGWGKKNPGTDRTAVESFLEQVLKAKVMKIDNWHILMRMKTPKEGGSCDPVAPLELPHSLHAFHRVSPTDELNKEGCHTFRGGFWNYFSLGMDAQISYAFHSERKLHPEKFKNQLVNQSTYVKLGCTQGWFCASLFHPASRNIAQLAKVKIATRNGQWQDLHIPHSIRSIVCLNLPSFSGGLNPWGTPNPRKQRDRGLTPPFVDDGLIEVVGFRNAWHGLVLLAPNGHGTRLAQANRIRFEFHKGATDHTFMRMDGEPWKQPLPLDDETVMVEISHLGQVNMLATHDCRSRSVFDPSTPRHQDGAEDYDDNEDDSVAEGEEFRKFGAADTFKIPDEVDISQLS", "soluble on expression in E. coli": "soluble"},
      {"sequence": "SELDAKLNKLGVDRIAISPYKQWTRGYMEPGNIGNGYVTGLKVDAGVRDKSDNNVLDGIVSYDRAETKNAYIGQINMTTAS", "soluble on expression in E. coli": "soluble"},
      {"sequence": "SELPVRCRNISGTLYKNRLGSGGRGRCIKQGENWYSPTEFEAMAGRASSKDWKRSIRYAGRPLQCLIQDGILNP", "soluble on expression in E. coli": "soluble"},
      {"sequence": "SEMIGGDDTDTEMYGALVTAQSLRLRHLHHCRENQCTSVLVKYIQAPVHLVWSLVRRFDQPQKYKPFISRCTVNGDPEIGCLREVNVKSGLPATTSTERLEQLDDEEHILGINIIGGDHRLKNYSSILTVHPEMIDGRSGTMVMESFVVDVPQGNTKDDTCYFVESLIKCNLKSLACVSERLAAQDITNSIATFCNASNGYREKNHTETNL", "soluble on expression in E. coli": "soluble"},
      {"sequence": "SERGDQPKRTRNENIFNCLYKNPEATFKLICFPWMGGGSTHFAKWGQDTHDLLEVHSLRLPGRESRVEEPLENDISQLVDEVVCALQPVIQDKPFAFFGHSMGSYIAFRTALGLKENNQPEPLHLFLSSATPVHSKAWHRIPKDDELSEEQISHYLMEFGGTPKHFAEAKEFVKQCSPIIRADLNIVRSCTSNVPSKAVLSCDLTCFVGSEDIAKDMEAWKDVTSGNAKIYQLPGGHFYLLDPANEKLIKNYIIKCLEVSSISNF", "soluble on expression in E. coli": "soluble"},
      {"sequence": "SETQSFVVSVAGSDRVGIVHDFSWALKNISANVESSRMACLGGDFAMIVLVSLNAKDGKLIQSALESALPGFQISTRRASSVAERHVSPDTREYELYVEGPDSEGIVEAVTAVLAKKGANIVELETETLPAPFAGFTLFRMGSRVAFPFPLYQEVVTALSRVEEEFGVDIDLEEVVEGEDSEEDDDSPNSPVGRH", "soluble on expression in E. coli": "soluble"},
      {"sequence": "SETRSPGLNNMKPQSLQLVLEEQVLALQQQMAENQAASWRKLKNSQEAQQRQATLVRKLQAKVLQYRSWCQELEKRLEATGGPIPQRWENVEEPNLDELLVRLEEEQQRCESLAEVNTQLRLHMEKADVVNKALREDVEKLTVDWK", "soluble on expression in E. coli": "soluble"}
    ]}
  ]
}
